In the supplement of paper PMC12042874:
± gives the uncertainty stated by the source.

Experiment: amyloid nucleation score (Sup35N fusion, yeast selection) (log enrichment); library NNK1; higher = more nucleation; inactive = no reads after selection
Procedure, shortened: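 Peptides of 20 random codons, each fused to Sup35N, were expressed in psi-negative yeast. Cells were induced with 100 μM copper sulfate for 24 hours and grown 7 days at 30°C on medium lacking adenine and uracil, and plasmid inserts before and after selection were Illumina-sequenced. Nucleation scores are DiMSum log enrichments of output over input reads, centred on the mode score of non-aggregating sequences, and sequences under 100 input reads were excluded.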

Substance	amyloid nucleation score
LCNVEDRPYKKFPTDVASK	-0.031 ± 0.31
AVLWTHQYFYYYIGLAF	-0.267 ± 0.68
VLSDSDINMRLEKEFYVIIS	inactive
YWIFFNT	3.16 ± 0.13
SSGFKSAPFSFLRLFLHISR	-1.47 ± 2.4
NGHLRSINTSSARCMPAVFT	-0.112 ± 0.53
NGKVYVELKEWDLRVVGSLR	4.44 ± 0.095
SMKCRNGILWFQRLVYLLLS	-0.747 ± 0.56
ETSGSPFILIICIYELNVVM	4.61 ± 0.07
MTLRLS	0.375 ± 0.41
RYTFVITVYKIDDSSEMSWV	0.82 ± 0.25
ILRNDMSATVNM	0.97 ± 0.17
LLSATFLLMSTCY	0.34 ± 0.29
TSCPRYECNENTSVYGSLDT	inactive
YLRDVRLYCVMRK	-0.129 ± 0.38
LVRLVVLLKEPGEDRFIIEH	-0.427 ± 0.79
GMSALYSGDVL	-0.118 ± 0.57
RHIFIRGIVYCCVSTFRFPS	-0.218 ± 0.27
CMYTEACNWWGKYNCVGRQL	0.235 ± 0.32
FCIYVLFFRSVDYPLRVVEL	-0.529 ± 0.67
WAVSGVDKVTRLGSEGVMQS	-0.809 ± 0.9
CQIFELLSNVRVTLLIYNSG	1.41 ± 0.19
IVEFASFSVQVNARNDLHLV	1.73 ± 0.28
IENRFLGVKLIAGCSHGLWS	-0.241 ± 0.57
TSREGRGSLSVWSG	-0.19 ± 0.81

Substance	amyloid nucleation score
VISPNSLTCCAH	-0.146 ± 0.93
ICVNESKKVFQVFIANIGRG	4.86 ± 0.07
WLTTGFLFVKLGGHKESSVQ	0.015 ± 0.33
HTRNVKTLRVKHSIDVPFLP	1.41 ± 0.74
CFGKSSVWHRYRFYIGNRAI	-0.613 ± 0.75
PSALGMVNGYIRVIYKRR	0.359 ± 0.53
NDDTLRSTKVIEHLFP	0.698 ± 1.2
VRYEIAA	-1.06 ± 2.4
VSEHSFWIWGRVPQLTQIIA	inactive
VPIMYNFGINDVGSVCDCTD	7.259 ± 0.053
FERCLNPGYCINFAGCESVV	0.581 ± 0.51
TRNVMFINVALHFSNLVGWC	4.21 ± 0.12
YSALVFRYGVISKGDLVTRR	0.123 ± 0.36
LQLCLPVFNHVMHVNWMRFY	-0.837 ± 2.4
CRLHVNGLVIVCASWKCGA	3.76 ± 0.1
VLVFCVTMVRNYSWCIGWRI	0.035 ± 0.44
KKKRRLSSWYSHPVPSSGLL	0.488 ± 1
HPLRLYRKSISINVVLSSCL	0.733 ± 0.88
NFLFAYVLALRLFMYSVNMW	4.5 ± 0.054
WFAGAGLIMRNVRSGW	-0.126 ± 0.66
SRYSNDLSDIMGDDESRSAH	0.136 ± 0.28
CAACSSQLYCEWFMNALLGM	-0.513 ± 0.44
PCTPYLSTYVPLNEK	-0.017 ± 0.31
ALMNGQMVTGALITEWYNWC	0.439 ± 0.97
AKWPARSPSLQLGNFWFDTT	0.161 ± 0.59

Substance	amyloid nucleation score
TTHLSHIYLLDASYNYKDSR	0.27 ± 0.36
LLIDSPCNWCTRGRSCKFSY	inactive
VSLVAGTWFYFWHNALVTYH	-0.067 ± 0.36
VFSKNFRVVIFTSNRSLFNK	0.595 ± 0.72
YFYDILGCDWKALSGRLIDT	-0.603 ± 0.25
LLIRLLGQ	inactive
VDVMRVVLNLNCSRTSVIYM	5.938 ± 0.048
VDLIPLEGVRGAWLQASQRG	0.664 ± 0.49
VLSSDGGGFVYFRYSGYTCR	0.253 ± 0.67
YYSFGRFKYTILL	-0.242 ± 0.6
LQILLLVSCLSQYAANKRRA	-0.291 ± 0.57
CPVNDMGVWGKMACWNNRV	-0.691 ± 0.54
TIGFTHYCCSFKS	-1.23 ± 0.52
IGGCWLLQMN	0.369 ± 0.44
LVPVWARLR	-0.686 ± 0.65
SCEFLCVRHVLCHHLSLNVS	0.296 ± 1.4
CVCYRTDRVARTGCNEPSMQ	0.177 ± 0.59
YNQISLD	-0.38 ± 1.1
CRDVY	1.92 ± 0.51
YTEQACDSVP	-0.788 ± 0.89
VSFIYFRVWILAMDY	0.842 ± 0.37
LMSYSECQLSLNAYRGGRVE	0.373 ± 0.55
NGINSVRKDLLFYNLQR	0.107 ± 1.1
KNYDGCHMSYVGSRGWITSL	0.215 ± 1.4
VRGSVLCHRSLHETKNFL	0.279 ± 0.38

Substance	amyloid nucleation score
IHGTMRGYWHMLFQELNIGV	-0.152 ± 0.54
CDSFVSFMPNFNFFR	5.03 ± 0.056
KMECVVRVSGCRDKVDWTAG	2.53 ± 0.2
TMSSSNQSQMFPSVIYSEGH	-0.209 ± 0.9
DNGCDEVCWELVFEFVD	0.562 ± 0.39
CQSGMSDDEGGQGRFVKCMG	0.114 ± 0.51
FTRKLPSFVLL	0.392 ± 0.61
NNYLCAEWFVTGVSTPLTTS	0.735 ± 0.55
KLDMGVLPFANWSVDT	-0.032 ± 0.28
SLVAGVVFVFMYRVPKIGLV	-0.807 ± 1.2
YSVGFTCRMVTLSASWYWLW	0.136 ± 0.32
QDIQSISWHAFVVESFKSEK	-0.094 ± 0.32
YADNSSTLMSDILFTIYRIG	1.06 ± 0.095
APCRVMIYINMSMDYWTMES	5.19 ± 0.072
LDSFTYKS	1.99 ± 0.49
RHFEDYMELSSLSLGMGEG	-0.394 ± 0.63
FALVRTLTRSKSSFTTSQIK	0.524 ± 0.47
FPDELESWRTSASPRVAPMG	-0.247 ± 1.9
SVRTCFNRYLKQVRVWSYAG	-0.165 ± 1.6
LLCYCVAELLDNTRRAT	0.328 ± 0.57
VNLGKNFTQLLIGRCVSKVR	0.417 ± 0.33
YWYFYISDRVKDNSCSNWSL	-1.03 ± 0.47
LVFLTYSSASARIPLRI	0.267 ± 0.29
GVASNYPNHLVLNSR	-0.211 ± 0.34
RVLSVIVNILIARFT	-0.028 ± 0.25

Substance	amyloid nucleation score
VISIGIGMDTTTRVGQMYMK	-0.115 ± 1.4
VALDIGFSWALSRLWLKRHF	0.095 ± 0.29
CVIDRWGDIYSNHEGNRSLL	-0.025 ± 0.32
SSFRLQALPVEFHGVNYHLA	0.182 ± 0.92
DDVMSKVPCVTTYSVVLLMR	0.83 ± 0.78
YRLVP	-0.186 ± 0.46
PVLWT	-0.002 ± 0.53
IYLPRNVFRLTWFYLSQSLA	0.639 ± 1.1
FDIFVDLFFMGALSMRPAAQ	-0.241 ± 1.1
RCKLLIIVIRKDTCLKYCGH	0.308 ± 0.32
LAVRESIVQDKTWQDYE	-0.102 ± 0.18
VDYSLSENSTVLLNIWDL	-0.008 ± 0.46
SHLFQM	-0.034 ± 0.58
DNDPMYYADSIEECF	inactive
MQNCISLL	-0.483 ± 0.4
APVSIKCRFL	0.357 ± 0.55
MFGKLLICYRLYK	0.084 ± 0.75
NLLHESCRVLYS	0.398 ± 0.5
MYFSIRDCCSYAFNSFDIYG	5.508 ± 0.047
PCALGECRLVNSVISRGFGR	0.38 ± 1.2
FRNTERGEFNVVYGSPGFSR	0.751 ± 0.51
FAAVPYISVLIRRLCLPYRT	1.07 ± 0.7
VCVGNAETYMERNYV	0.531 ± 0.4
KRFLSYWRFSWGWYIAQACG	-0.68 ± 1.4
SRGPRFDCPMLVTVPSTSLE	-1.1 ± 2.4

Substance	amyloid nucleation score
YAFARCLTHINVVALIVRMC	-1.18 ± 0.64
SFFFKFYSDSFGNSTFQTID	-0.046 ± 0.31
LMWCGSANMY	0.632 ± 1.2
CHIWPDVLNVCAILGDLRKR	1.18 ± 0.16
FDATFVMLRSRAFFKICKER	0.751 ± 0.27
TVRRVGISWNWYIKTLYGSD	-1.12 ± 0.88
FMMCAYSLVPILLP	0.136 ± 1.1
SNIFNMGY	0.187 ± 0.35
VLCPW	-0.283 ± 0.44
NLNTASQNIASLGLGALVLW	0.073 ± 0.44
YGKSYVIDGVVWGRQDSWES	-0.748 ± 1.6
FISPFCIVSYIIC	5.846 ± 0.054
VLWHGLVVRSGNVEIVRSMC	-0.175 ± 0.96
IDEYTDMN	0.146 ± 0.42
RGLLYS	0.768 ± 0.75
FLVSCYPWVE	0.248 ± 0.71
PVTSTIHRHPFFHVTTGDRM	-1.32 ± 0.94
CFRELPYSLYNC	-0.666 ± 0.42
HLSVMMGFGFRTFNMIVMVC	1.05 ± 0.26
SYRFFRGMMYLSHVIDLQSR	-0.307 ± 1.1
RIFNIYNGVQRRNFYYFYSC	7.532 ± 0.05
LSCWLYNPGYCVSVEFC	6.906 ± 0.056
TLAGRCINDCILEGDMSRCF	2.18 ± 0.57
VEMGIIFR	-0.339 ± 0.24
RSCSNRIIKCNLSHVMFY	4.45 ± 0.052

Substance	amyloid nucleation score
CESCAACMRHYRWLGFQSYI	-1.5 ± 2.4
DLTVRPACAGCRLYSEVILD	-0.852 ± 1.6
VPPCEWHRRTYR	0.176 ± 1.1
YFRIDAKTWFVSFPVALLPV	-0.557 ± 0.29
GYEVKMHYSVLIINNSCPCL	0.95 ± 0.25
SSRYFLFLAHTHWLCTMTCP	-0.064 ± 0.8
SLIMIGIFFYFSLSKQPRSV	0.027 ± 1.7
HFKAYAFLDPFPLAPKL	0.463 ± 0.64
SEGMYSRMAIEWLSGE	1.21 ± 0.69
CPRVKAHVRKNVFFSLVMSL	0.296 ± 0.44
LWVTRRPVGGFMW	0.721 ± 0.79
RVDGVKIRGYNWHLLMITCI	0.083 ± 0.6
GMSIE	-0.314 ± 0.8
ARNIVSFDGTFYSFKQTYTP	2.12 ± 0.19
HKNLQIVTFFVEYVSETPPG	-1.05 ± 1
SYNVMCVGYCIC	3.4 ± 0.12
VKPLKHPSGYYAMRRFVYNI	-0.566 ± 1.2
SWNYLVTDAKRRDGGEERVR	-0.851 ± 1.7
DRCVQCTALTASTGR	-0.113 ± 0.94
ARLDRSFR	0.451 ± 0.55
RLGAGCSPSLVLS	0.197 ± 0.56
